Indel activity and indel editing activity data for two molecules are collected here from US20240035010, “COMPOSITIONS COMPRISING A VARIANT POLYPEPTIDE AND USES THEREOF” (Arbor Biotechnologies, Inc., published 2024).

Series [1] concerns the target T1, variant nuclease K35G combination (P14R, D32R, I61R, E311R, K35G).
T1 chain: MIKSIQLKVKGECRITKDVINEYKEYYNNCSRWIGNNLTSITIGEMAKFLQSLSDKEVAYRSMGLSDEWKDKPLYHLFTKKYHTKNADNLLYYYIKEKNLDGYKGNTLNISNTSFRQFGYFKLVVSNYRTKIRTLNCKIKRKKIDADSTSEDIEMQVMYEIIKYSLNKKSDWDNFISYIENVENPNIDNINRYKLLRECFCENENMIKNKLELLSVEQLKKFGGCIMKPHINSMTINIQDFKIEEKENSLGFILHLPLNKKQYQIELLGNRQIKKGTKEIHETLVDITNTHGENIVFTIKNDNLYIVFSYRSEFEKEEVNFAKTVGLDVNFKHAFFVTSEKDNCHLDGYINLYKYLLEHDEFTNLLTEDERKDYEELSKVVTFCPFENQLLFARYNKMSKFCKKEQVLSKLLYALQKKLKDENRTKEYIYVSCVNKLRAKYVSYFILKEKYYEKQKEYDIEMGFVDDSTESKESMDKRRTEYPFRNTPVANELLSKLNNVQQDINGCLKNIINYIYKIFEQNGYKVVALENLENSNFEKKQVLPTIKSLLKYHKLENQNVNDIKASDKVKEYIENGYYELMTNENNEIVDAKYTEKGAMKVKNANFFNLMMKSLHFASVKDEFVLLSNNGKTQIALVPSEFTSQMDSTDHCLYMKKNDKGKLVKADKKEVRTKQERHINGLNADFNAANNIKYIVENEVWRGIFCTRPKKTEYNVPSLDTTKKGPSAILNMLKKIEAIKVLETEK
Put plainly: cell_activity; PAM 5'-TTTA-3'. Particulars: tags: pcDNA3.1 expression. On the procedure:
Approximately 16 hours prior to transfection, 25,000 HEK293T cells in DMEM/10% FBS+Pen/Strep (D10 media) were plated into each well of a 96-well plate. On the day of transfection, the cells were 70-90% confluent. For each well to be transfected, a mixture of Lipofectamine 2000™ and Opti-MEM™ was prepared and incubated at room temperature for 5 minutes (Solution 1). After incubation, the Lipofectamine 2000™:Opti-MEM™ mixture was added to a separate mixture containing nuclease plasmid, RNA guide plasmid, and Opti-MEM™ (Solution 2). In the case of negative controls, the RNA guide plasmid was not included in Solution 2. Solutions 1 and 2 were mixed by pipetting up and down, then incubated at room temperature for 25 minutes. Following incubation, the Solution 1 and 2 mixture was added dropwise to each well of a 96-well plate containing the cells. Approximately 72 hours post transfection, cells were trypsinized by adding TrypLE™ to the center of each well and incubating at 37° C. for approximately 5 minutes. D10 media was then added to each well and mixed to resuspend cells. The resuspended cells were centrifuged at 500 g for 10 minutes to obtain a pellet, and the supernatant was discarded. The cell pellet was then resuspended in QuickExtract™ buffer (Lucigen®), and cells were incubated at 65° C. for 15 minutes, 68° C. for 15 minutes, and 98° C. for 10 minutes.
This Example describes assessment of indel activity at multiple target sites using the wild-type polypeptide of SEQ ID NO: 3 or variant polypeptides of Table 4. The variant polypeptides were cloned into a pcDNA3.1 backbone (Invitrogen), and the cells were transfected as described in Example 7.
The percentage of NGS reads containing indels (% indels) were calculated. For each variant polypeptide and target, % indels were averaged across two bioreplicates and two technical replicates. These values were then compared to % indels of the wild-type polypeptide of SEQ ID NO: 3.

In series [2] the target is T2, variant nuclease SEQ ID NO: 53 (P14R, D32R, I61R, E311R, T338G, E736G).
T2 chain: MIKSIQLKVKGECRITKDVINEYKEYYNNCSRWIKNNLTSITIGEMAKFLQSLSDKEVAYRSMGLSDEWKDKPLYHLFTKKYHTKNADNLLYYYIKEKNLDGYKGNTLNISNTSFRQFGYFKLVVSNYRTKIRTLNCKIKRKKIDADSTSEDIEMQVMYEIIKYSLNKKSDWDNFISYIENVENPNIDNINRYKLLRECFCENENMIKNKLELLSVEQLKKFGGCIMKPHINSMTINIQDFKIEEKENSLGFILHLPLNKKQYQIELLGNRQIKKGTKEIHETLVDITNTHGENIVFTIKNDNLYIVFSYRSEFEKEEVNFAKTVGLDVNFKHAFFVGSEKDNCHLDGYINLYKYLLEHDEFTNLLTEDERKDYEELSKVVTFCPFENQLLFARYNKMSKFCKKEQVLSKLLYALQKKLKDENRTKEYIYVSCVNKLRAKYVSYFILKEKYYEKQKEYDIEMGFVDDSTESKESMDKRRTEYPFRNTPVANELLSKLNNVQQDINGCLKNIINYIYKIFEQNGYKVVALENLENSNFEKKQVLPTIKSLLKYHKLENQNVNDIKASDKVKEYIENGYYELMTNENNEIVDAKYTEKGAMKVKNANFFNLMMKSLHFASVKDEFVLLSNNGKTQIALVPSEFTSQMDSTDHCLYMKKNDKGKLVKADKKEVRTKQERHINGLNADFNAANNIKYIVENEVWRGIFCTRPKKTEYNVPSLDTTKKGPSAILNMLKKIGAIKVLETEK
Put plainly: cell_activity; % indels; HEK293T; PAM 5'-TTTG-3'. Particulars: tags: pcDNA3.1 expression.

B1: VEGFA crRNA ; VEGFA target (ssRNA ; dsDNA)
RNA: CUUGUUGUAUAUGUCCUUUUAUAGGUAUUAAACAACUCCAGACCACCAAUGGGCAC
DNA 1: TCCAGACCACCAATGGGCAC
DNA 2: GTGCCCATTGGTGGTCTGGA
Consider B1, for which the indel activity in series [1] was 2.69 fold of WT.

B2: AAVS1 crRNA ; AAVS1 target (ssRNA ; dsDNA)
RNA: CUUGUUGUAUAUGUCCUUUUAUAGGUAUUAAACAACUGAGAAUGGUGCGUCCUAGG
DNA 1: TGAGAATGGTGCGTCCTAGG
DNA 2: CCTAGGACGCACCATTCTCA
Take B2: in series [2], the indel editing activity is 6.11 fold of WT.
